Biological target: BPV-1 E2 protein, wild type, full length (amino acids 1 to 410) (bovine papillomavirus (BPV-1), UniProt P03122)
Experiment: alternative two hybrid assay in yeast, LexA/LacZ reporter pSH18-34, GAL/XGAL plate

B1: LexA DBD alone (YEplac181GLexA202) (other)
chain: MKALTARQQEVFDLIRDHISQTGMPPTRAEIAQRLGFRSPNAAEEHLKALARKGVIEIVSGASRGIRLLQEEEEGLPLVGRVAAGEPLLAQQHIEGHYQVDPSLFKPNADFLLRVSGMSMKDIGIMDGDLLAVHKTQDVRNGQVVVARIDDEVTVKRLKKQGNKVELLPENSEFKPIVVDLRQQSFTIEGLAVGVIRNGDWL
B1: no binding.

Reference: patent US5770384, “Method for determining compound interaction with E2 binding proteins” (New England Medical Center Hospitals, Inc, dated 1998)
